Consider 1 substance from patent EP2056867B1.

Experiment [1] has as its target scavenger receptor CD36. The experiment in a line: flow cytometry on CD36-transfected CHO cells, rAv17 at 5 µg/ml; detected with an anti-cystatin mAb and a FITC secondary antibody; baseline 20%.
The target in experiment [2] is scavenger receptor CD36. The experiment in a line: flow cytometry on CD36-transfected CHO cells, rAv17 at 2.5 µg/ml; detected with an anti-cystatin mAb and a FITC secondary antibody; baseline 20%. On the technique in general: Flow cytometry measures light scatter and fluorescence of single cells or particles in a stream.

“recombinant Acanthocheilonema viteae cystatin (rAv17)”: the fluorescence positive cells in the experiment with scavenger receptor CD36 [1] was 89%; with scavenger receptor CD36 [2] it was 71%.
